Key:
[1] = substrate: N[C@@H](Cc1ccc(O)c(O)c1)C(=O)O; assay: Kinetic analysis of tyrosinase (Lineweaver-Burk plots); assay type: biochemical, Bacillus megaterium; conditions: other: compound as TyrBm natural substrate; pH 7.4; 40.0 °C
Experimental: (§1) Tyrosinase inhibitory activity was determined spectrophotometrically in 96-well plates with a final volume of 200 μl. First, 50 mM PBS buffer pH 7.4 and 0.01 mM CuSO4 were mixed with 6 μg ml^−1 of purified enzyme. Then, the mixture was incubated at 40 °C for 2 minutes. Finally, various concentrations of inhibitor were mixed with 1.2 mM L-tyrosine or 2 mM L-dopa and were added to the pre-incubated mixture. […] The reaction mixture was then monitored for L-dopachrome formation (ε = 3600M^−1 cm^−1) by measuring the absorbance at 475 nm. Specific activity was calculated as the ratio of the conversion rate and the total protein content as determined by the Bradford analysis method (Bio-Rad, Israel). All measurements were performed in seven replicates.
(§2) The inhibition kinetics module of Sigma Plot 13.0 software was used (Systat Software, Inc., Richmond, CA, USA). All measurements were performed in 5-replicates.

[2] = substrate: N[C@@H](Cc1ccc(O)cc1)C(=O)O; assay: as above; assay type: biochemical, Bacillus megaterium; conditions: other: compound as TyrBm natural substrate; pH 7.4; 40.0 °C
Experimental: as §1, §2

B1: TyrBm (tyrosinase from Bacillus megaterium) (Priestia megaterium) (protein)
chain: MSNKYRVRKNVLHLTDTEKRDFVRTVLILKEKGIYDRYIAWHGAAGKFHTPPGSDRNAAHMSSAFLPWHREYLLRFERDLQSINPEVTLPYWEWETDAQMQDPSQSQIWSADFMGGNGNPIKDFIVDTGPFAAGRWTTIDEQGNPSGGLKRNFGATKEAPTLPTRDDVLNALKITQYDTPPWDMTSQNSFRNQLEGFINGPQLHNRVHRWVGGQMGVVPTAPNDPVFFLHHANVDRIWAVWQIIHRNQNYQPMKNGPFGQNFRDPMYPWNTTPEDVMNHRKLGYVYDIELRKSKRSS
notes: made in house; host or cells: Escherichia coli BL21
Km [1]: 240 ± 20 µM
Vmax [1]: 30.3 µmol/min/mg
kcat [1]: 17.8 s⁻¹
kcat/Km [1]: 74200 M⁻¹ s⁻¹
Km [2]: 82 ± 6 µM
Vmax [2]: 3.62 µmol/min/mg
kcat [2]: 2.1 s⁻¹
kcat/Km [2]: 25600 M⁻¹ s⁻¹

— publication PMC5057104, “The unravelling of the complex pattern of tyrosinase inhibition” (Scientific Reports, 2016)
